Results as given in publication PMC9076600, “Ultrasensitive detection of Staphylococcal enterotoxin B in milk based on target-triggered assembly of the flower like nucleic acid nanostructure†”.

Key:
Assay in all cases: Binding buffer not stated; […] (50 uM) […]
[1] = target: OVA (UniProt P01012 2-386)
[2] = target: Staphylococcal enterotoxin A (SEA) (UniProt P0A0L2 25-257)
[3] = target: Staphylococcal enterotoxin B (SEB) (UniProt P01552 28-266)
Staphylococcal enterotoxin B (SEB), sequence (P01552 28-266): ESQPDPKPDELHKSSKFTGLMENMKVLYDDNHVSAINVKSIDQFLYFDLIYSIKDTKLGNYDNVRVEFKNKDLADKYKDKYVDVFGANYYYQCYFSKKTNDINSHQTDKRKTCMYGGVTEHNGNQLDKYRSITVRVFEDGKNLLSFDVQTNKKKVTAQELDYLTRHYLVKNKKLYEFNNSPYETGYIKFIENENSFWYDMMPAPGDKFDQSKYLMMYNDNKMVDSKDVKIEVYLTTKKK

Staphylococcal enterotoxin A (SEA), sequence (P0A0L2 25-257): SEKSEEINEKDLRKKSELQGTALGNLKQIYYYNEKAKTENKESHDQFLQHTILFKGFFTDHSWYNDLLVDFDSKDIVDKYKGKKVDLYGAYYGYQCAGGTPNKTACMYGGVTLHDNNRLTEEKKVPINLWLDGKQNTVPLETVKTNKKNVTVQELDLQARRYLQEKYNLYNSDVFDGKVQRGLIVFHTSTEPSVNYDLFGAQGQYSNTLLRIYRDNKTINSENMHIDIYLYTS
OVA, sequence (P01012 2-386): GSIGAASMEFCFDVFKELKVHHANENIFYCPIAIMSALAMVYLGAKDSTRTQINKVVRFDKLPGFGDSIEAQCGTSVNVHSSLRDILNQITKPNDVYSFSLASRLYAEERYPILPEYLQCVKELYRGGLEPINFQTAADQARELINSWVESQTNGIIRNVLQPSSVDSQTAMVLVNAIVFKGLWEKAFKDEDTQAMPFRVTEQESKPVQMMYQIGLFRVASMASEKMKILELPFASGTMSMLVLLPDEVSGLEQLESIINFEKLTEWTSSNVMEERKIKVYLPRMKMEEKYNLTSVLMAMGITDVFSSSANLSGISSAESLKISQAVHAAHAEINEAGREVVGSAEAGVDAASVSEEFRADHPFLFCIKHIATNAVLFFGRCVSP

B1: SEB aptamer (ssDNA)
DNA: GGTATTGAGGGTCGCATCCACTGGTCGTTGTCTGTTGTCTGTTATGTTGTTTCGTGATGGCTCTAACTCTCCTCT
Question: Does B1 bind [1]?
Answer: Result: no binding

Question: Does B1 bind [2]?
Answer: Result: no binding

Question: Does B1 bind [3]?
Answer: Result: binds
